# Measured values: article PMC6056610
# What was measured:
# [1] = target: 16055 NFL I559P (HIV-1 16055 (clade C)); assay: SEC; Superdex 200 16/60 or 10/300 GL after lectin-affinity chromatography; also after negative selection or rEK cleavage where told
# [2] = target: 16055 NFL L555P (HIV-1 16055 (clade C)); assay: negative stain electron microscopy; 2D class averages (RELION) of purified trimers, ~0.01 mg/mL, 0.7% uranyl formate
# [3] = target: 16055 NFL L555P (HIV-1 16055 (clade C)); assay: SEC; Superdex 200 16/60 or 10/300 GL after lectin-affinity chromatography; also after negative selection or rEK cleavage where told
# [4] = target: 16055 NFL N554P (HIV-1 16055 (clade C)); assay: as above
# [5] = target: 16055 NFL Q562P (HIV-1 16055 (clade C)); assay: negative stain electron microscopy; 2D class averages (RELION) of purified trimers, ~0.01 mg/mL, 0.7% uranyl formate
# [6] = target: 16055 NFL Q562P (HIV-1 16055 (clade C)); assay: SEC; Superdex 200 16/60 or 10/300 GL after lectin-affinity chromatography; also after negative selection or rEK cleavage where told
# [7] = target: 16055 NFL Q563P (HIV-1 16055 (clade C)); assay: negative stain electron microscopy; 2D class averages (RELION) of purified trimers, ~0.01 mg/mL, 0.7% uranyl formate
# [8] = target: 16055 NFL Q563P (HIV-1 16055 (clade C)); assay: SEC; Superdex 200 16/60 or 10/300 GL after lectin-affinity chromatography; also after negative selection or rEK cleavage where told
# [9] = target: 16055 NFL S553P (HIV-1 16055 (clade C)); assay: as above
# [10] = target: BG505 NFL I559P (HIV-1 BG505 (clade A)); assay: as above
# [11] = target: BG505 NFL L555P (HIV-1 BG505 (clade A)); assay: negative stain electron microscopy; 2D class averages (RELION) of purified trimers, ~0.01 mg/mL, 0.7% uranyl formate
# [12] = target: BG505 NFL L555P (HIV-1 BG505 (clade A)); assay: SEC; Superdex 200 16/60 or 10/300 GL after lectin-affinity chromatography; also after negative selection or rEK cleavage where told
# [13] = target: BG505 NFL N554P (HIV-1 BG505 (clade A)); assay: as above
# [14] = target: BG505 NFL Q562P (HIV-1 BG505 (clade A)); assay: as above
# [15] = target: BG505 NFL Q563P (HIV-1 BG505 (clade A)); assay: as above
# [16] = target: BG505 NFL S553P (HIV-1 BG505 (clade A)); assay: as above
substance,measurement,setting,value
16055 NFL I559P (domain or fragment),stoichiometry N,[1],3
16055 NFL L555P (domain or fragment),stoichiometry N,[2],3
same,stoichiometry N,[3],3
16055 NFL N554P (domain or fragment),stoichiometry N,[4],3
16055 NFL Q562P (domain or fragment),stoichiometry N,[5],3
same,stoichiometry N,[6],3
16055 NFL Q563P (domain or fragment),stoichiometry N,[7],3
same,stoichiometry N,[8],3
16055 NFL S553P (domain or fragment),stoichiometry N,[9],3
BG505 NFL I559P (domain or fragment),stoichiometry N,[10],3
BG505 NFL L555P (domain or fragment),stoichiometry N,[11],3
same,stoichiometry N,[12],3
BG505 NFL N554P (domain or fragment),stoichiometry N,[13],3
BG505 NFL Q562P (domain or fragment),stoichiometry N,[14],3
BG505 NFL Q563P (domain or fragment),stoichiometry N,[15],3
BG505 NFL S553P (domain or fragment),stoichiometry N,[16],3
